Measured values reported in the array DNA melting data of Ke et al..

Assay: melting temperature; melt of duplexes
Settings: sodium 0.0675 M; strand 1 µM

CGACGTGCTATATGTGCTG+CAGCACATGGGGCACGTCG ((((((((...((((((((+))))))))...))))))))
Tm: 51 °C

CGACGTGCACCATGTGCTG+CAGCACATTGCGCACGTCG ((((((((.(.((((((((+)))))))).).))))))))
Tm: 46.9 °C

CGACGTGCGTAATGTGCTG+CAGCACATATCGCACGTCG (((((((((..((((((((+))))))))..)))))))))
Tm: 55.6 °C

CGACGTGCCTCATGTGCTG+CAGCACATTTTGCACGTCG ((((((((...((((((((+))))))))...))))))))
Tm: 46.6 °C

CGACGTGCGTGATGTGCTG+CAGCACATGCCGCACGTCG (((((((((..((((((((+))))))))..)))))))))
Tm: 54.7 °C

CGACGTGCCGGATGTGCTG+CAGCACATGTCGCACGTCG ((((((((...((((((((+))))))))...))))))))
Tm: 49.4 °C

CGACGTGCTAAATGTGCTG+CAGCACATTGAGCACGTCG (((((((((.(((((((((+))))))))).)))))))))
Tm: 57.2 °C

CGACGTGCCTGATGTGCTG+CAGCACATAACGCACGTCG ((((((((.(.((((((((+)))))))).).))))))))
Tm: 48.8 °C

CGACGTGCTCGATGTGCTG+CAGCACATTGTGCACGTCG ((((((((.(.((((((((+)))))))).).))))))))
Tm: 51.5 °C

CGACGTGCGATATGTGCTG+CAGCACATACTGCACGTCG ((((((((..(((((((((+)))))))))..))))))))
Tm: 52.6 °C

CGACGTGCTAGATGTGCTG+CAGCACATTGCGCACGTCG ((((((((...((((((((+))))))))...))))))))
Tm: 49.2 °C

CGACGTGCTCAATGTGCTG+CAGCACATGCGGCACGTCG ((((((((...((((((((+))))))))...))))))))
Tm: 49.4 °C

CGACGTGCCTCATGTGCTG+CAGCACATTGCGCACGTCG ((((((((...((((((((+))))))))...))))))))
Tm: 47.5 °C

CGACGTGCGTGATGTGCTG+CAGCACATAATGCACGTCG ((((((((.(.((((((((+)))))))).).))))))))
Tm: 52.9 °C

CGACGTGCTCGATGTGCTG+CAGCACATCTCGCACGTCG ((((((((..(((((((((+)))))))))..))))))))
Tm: 53.3 °C

CGACGTGCTCGATGTGCTG+CAGCACATCAAGCACGTCG (((((((((.(((((((((+))))))))).)))))))))
Tm: 57.2 °C

CGACGTGCTCTATGTGCTG+CAGCACATTGTGCACGTCG ((((((((.(.((((((((+)))))))).).))))))))
Tm: 48.3 °C

CGACGTGCCGGATGTGCTG+CAGCACATGTGGCACGTCG (((((((((..((((((((+))))))))..)))))))))
Tm: 57.3 °C

CGACGTGCGGCATGTGCTG+CAGCACATGATGCACGTCG ((((((((..(((((((((+)))))))))..))))))))
Tm: 58.7 °C

CGACGTGCACCATGTGCTG+CAGCACATCGTGCACGTCG ((((((((((.((((((((+)))))))).))))))))))
Tm: 49.6 °C

CGACGTGCGATATGTGCTG+CAGCACATGTCGCACGTCG ((((((((((.((((((((+)))))))).))))))))))
Tm: 61 °C

CGACGTGCCCAATGTGCTG+CAGCACATTTAGCACGTCG ((((((((..(((((((((+)))))))))..))))))))
Tm: 50.4 °C

CGACGTGCCAAATGTGCTG+CAGCACATCATGCACGTCG ((((((((...((((((((+))))))))...))))))))
Tm: 48.3 °C

CGACGTGCCTAATGTGCTG+CAGCACATCCTGCACGTCG ((((((((...((((((((+))))))))...))))))))
Tm: 47.9 °C

CGACGTGCAGAATGTGCTG+CAGCACATTACGCACGTCG ((((((((..(((((((((+)))))))))..))))))))
Tm: 52.7 °C

CGACGTGCCGCATGTGCTG+CAGCACATGCGGCACGTCG (((((((((((((((((((+)))))))))))))))))))
Tm: 69.1 °C

CGACGTGCTCGATGTGCTG+CAGCACATGTGGCACGTCG ((((((((...((((((((+))))))))...))))))))
Tm: 50.7 °C

CGACGTGCAGTATGTGCTG+CAGCACATTGGGCACGTCG ((((((((...((((((((+))))))))...))))))))
Tm: 48.8 °C

CGACGTGCGCAATGTGCTG+CAGCACATAATGCACGTCG ((((((((...((((((((+))))))))...))))))))
Tm: 50.5 °C

CGACGTGCATTATGTGCTG+CAGCACATTCAGCACGTCG ((((((((...((((((((+))))))))...))))))))
Tm: 48.7 °C

CGACGTGCTTTATGTGCTG+CAGCACATCCGGCACGTCG ((((((((...((((((((+))))))))...))))))))
Tm: 48.2 °C

CGACGTGCATAATGTGCTG+CAGCACATCGAGCACGTCG ((((((((...((((((((+))))))))...))))))))
Tm: 48.5 °C

CGACGTGCATTATGTGCTG+CAGCACATGGCGCACGTCG ((((((((...((((((((+))))))))...))))))))
Tm: 48.4 °C

CGACGTGCGAGATGTGCTG+CAGCACATCCCGCACGTCG (((((((((.(((((((((+))))))))).)))))))))
Tm: 60.3 °C

CGACGTGCGGGATGTGCTG+CAGCACATAAGGCACGTCG ((((((((...((((((((+))))))))...))))))))
Tm: 51.1 °C

CGACGTGCACGATGTGCTG+CAGCACATTTTGCACGTCG (((((((((..((((((((+))))))))..)))))))))
Tm: 48.5 °C

CGACGTGCGCTATGTGCTG+CAGCACATCGCGCACGTCG ((((((((((.((((((((+)))))))).))))))))))
Tm: 60.1 °C

CGACGTGCAAGATGTGCTG+CAGCACATCGGGCACGTCG ((((((((..(((((((((+)))))))))..))))))))
Tm: 57 °C

CGACGTGCTAAATGTGCTG+CAGCACATTGCGCACGTCG ((((((((..(((((((((+)))))))))..))))))))
Tm: 51.2 °C

CGACGTGCGTAATGTGCTG+CAGCACATCCCGCACGTCG (((((((((..((((((((+))))))))..)))))))))
Tm: 53.5 °C

CGACGTGCGGTATGTGCTG+CAGCACATAGCGCACGTCG (((((((((.(((((((((+))))))))).)))))))))
Tm: 62.5 °C

CGACGTGCCTCATGTGCTG+CAGCACATCAGGCACGTCG ((((((((((.((((((((+)))))))).))))))))))
Tm: 55 °C

CGACGTGCGTAATGTGCTG+CAGCACATTCTGCACGTCG ((((((((..(((((((((+)))))))))..))))))))
Tm: 53.4 °C

CGACGTGCTCCATGTGCTG+CAGCACATAGAGCACGTCG ((((((((((.((((((((+)))))))).))))))))))
Tm: 56.2 °C

CGACGTGCTCCATGTGCTG+CAGCACATACTGCACGTCG ((((((((...((((((((+))))))))...))))))))
Tm: 47.4 °C

CGACGTGCTAAATGTGCTG+CAGCACATTCCGCACGTCG ((((((((..(((((((((+)))))))))..))))))))
Tm: 50.1 °C

CGACGTGCCCAATGTGCTG+CAGCACATGTAGCACGTCG ((((((((...((((((((+))))))))...))))))))
Tm: 50.6 °C

CGACGTGCATCATGTGCTG+CAGCACATCTGGCACGTCG ((((((((...((((((((+))))))))...))))))))
Tm: 47.5 °C

CGACGTGCGCTATGTGCTG+CAGCACATATAGCACGTCG ((((((((..(((((((((+)))))))))..))))))))
Tm: 53.8 °C

CGACGTGCGAGATGTGCTG+CAGCACATGGGGCACGTCG ((((((((...((((((((+))))))))...))))))))
Tm: 51.1 °C

CGACGTGCCTTATGTGCTG+CAGCACATTCAGCACGTCG ((((((((...((((((((+))))))))...))))))))
Tm: 49 °C

CGACGTGCCGTATGTGCTG+CAGCACATCTAGCACGTCG ((((((((...((((((((+))))))))...))))))))
Tm: 49.1 °C

CGACGTGCCCAATGTGCTG+CAGCACATCTTGCACGTCG ((((((((...((((((((+))))))))...))))))))
Tm: 48.1 °C

CGACGTGCCCTATGTGCTG+CAGCACATAGGGCACGTCG (((((((((((((((((((+)))))))))))))))))))
Tm: 64.4 °C

CGACGTGCAATATGTGCTG+CAGCACATCCTGCACGTCG (((((((((..((((((((+))))))))..)))))))))
Tm: 49.6 °C

CGACGTGCTCGATGTGCTG+CAGCACATGTAGCACGTCG (((((((((..((((((((+))))))))..)))))))))
Tm: 52.3 °C

CGACGTGCTGTATGTGCTG+CAGCACATCCCGCACGTCG ((((((((.(.((((((((+)))))))).).))))))))
Tm: 49.4 °C

CGACGTGCAGAATGTGCTG+CAGCACATTCTGCACGTCG (((((((((((((((((((+)))))))))))))))))))
Tm: 64.2 °C

CGACGTGCTGCATGTGCTG+CAGCACATACAGCACGTCG ((((((((((.((((((((+)))))))).))))))))))
Tm: 58.2 °C

CGACGTGCACCATGTGCTG+CAGCACATACGGCACGTCG ((((((((...((((((((+))))))))...))))))))
Tm: 42.9 °C

CGACGTGCTCTATGTGCTG+CAGCACATGCTGCACGTCG ((((((((...((((((((+))))))))...))))))))
Tm: 47 °C

CGACGTGCCGGATGTGCTG+CAGCACATGCTGCACGTCG ((((((((.(.((((((((+)))))))).).))))))))
Tm: 51.3 °C

CGACGTGCCTGATGTGCTG+CAGCACATGTGGCACGTCG (((((((((..((((((((+))))))))..)))))))))
Tm: 54.9 °C

CGACGTGCAAAATGTGCTG+CAGCACATGAGGCACGTCG ((((((((...((((((((+))))))))...))))))))
Tm: 52.5 °C

CGACGTGCCTAATGTGCTG+CAGCACATAGGGCACGTCG (((((((((..((((((((+))))))))..)))))))))
Tm: 55.4 °C

CGACGTGCACTATGTGCTG+CAGCACATTCGGCACGTCG ((((((((...((((((((+))))))))...))))))))
Tm: 43.7 °C

CGACGTGCTATATGTGCTG+CAGCACATGACGCACGTCG ((((((((...((((((((+))))))))...))))))))
Tm: 47.6 °C

CGACGTGCCCCATGTGCTG+CAGCACATGCTGCACGTCG ((((((((..(((((((((+)))))))))..))))))))
Tm: 49.7 °C

CGACGTGCGTCATGTGCTG+CAGCACATTCCGCACGTCG (((((((((..((((((((+))))))))..)))))))))
Tm: 52.8 °C

CGACGTGCTGCATGTGCTG+CAGCACATTGCGCACGTCG ((((((((...((((((((+))))))))...))))))))
Tm: 53.5 °C

CGACGTGCGCGATGTGCTG+CAGCACATGTAGCACGTCG ((((((((...((((((((+))))))))...))))))))
Tm: 52.6 °C

CGACGTGCCAGATGTGCTG+CAGCACATTCAGCACGTCG ((((((((...((((((((+))))))))...))))))))
Tm: 50.7 °C
